From US7022818 (Janssen / Centocor, dated 2006) come the findings set out here.

First the molecules themselves.
T1: human GFRα-2-IgGFc fusion protein (human, UniProt O00451 20-431)
T1 construct: range 20-431; not shown: 243 amino acid residue COOH-terminal human IgG1-Fc fusion domain from vector Signal pIg plus (R&D Systems); exact limits
T1 sequence (looked up): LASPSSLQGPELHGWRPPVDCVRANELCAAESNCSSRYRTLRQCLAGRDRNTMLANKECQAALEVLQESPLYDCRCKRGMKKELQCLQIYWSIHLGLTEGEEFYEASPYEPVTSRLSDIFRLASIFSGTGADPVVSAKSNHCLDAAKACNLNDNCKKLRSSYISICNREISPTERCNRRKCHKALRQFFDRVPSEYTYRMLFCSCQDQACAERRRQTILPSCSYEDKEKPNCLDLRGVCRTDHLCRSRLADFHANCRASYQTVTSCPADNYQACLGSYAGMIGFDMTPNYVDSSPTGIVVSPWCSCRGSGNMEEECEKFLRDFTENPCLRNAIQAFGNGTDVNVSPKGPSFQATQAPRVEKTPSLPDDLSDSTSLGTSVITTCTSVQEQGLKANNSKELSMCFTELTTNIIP

B1: rat GFRα-4 variant A-IgGFc fusion protein (Fc fusion)
chain: ASSTEGNRCVEAAEACTADEQCQQLRSEYVAQCLGRAGWRGPGSCVRSRCRRALRRFFARGPPALTHALLFCGCEGPACAERRRQTFAPACAFSGPQLAPPSCLKPLDRCERSRRCRPRLFAFQASCAPAPGSRDGCPEEGGPRCLRAYAGLVGTVVTPNYLDNVSARVAPWCGCEASGNRREECEAFRKLFTRNPCLDGAIQAFDSSQPSVLQDQWNPYQNAG
notes: also called rat GFRα-4-IgGFc; rat GFRα4-IgGFc; not shown: The 243-residue COOH-terminal human IgG1-Fc fusion domain from the vector Signal pIg plus (R&D Systems)
B2: NH2-terminally 6His-tagged recombinant rat persephin (ligand)
chain: HHHHHHALPGLCRLWSLTLPVAELGLGYASEEKIIFRYCAGSCPQEVRTQHSLVLARLRGQGRAHGRPCCQPTSYADVTFLDDHHHWQQLPQLSAAACGCGG
notes: Immobilised on a CM5 chip by amine coupling; Produced as described in Creedon et al., 1997; also called PSP; rat PSP
B3: NH2-terminally 6His-tagged recombinant human enovin/artemin (ligand)
chain: HHHHHHAGGPGSRARAAGARGCRLRSQLVPVRALGLGHRSDELVRFRFCSGSCRRARSPHDLSLASLLGAGALRPPPGSRPVSQPCCRPTRYEAVSFMDVNSTWRTVDRLSATACGCLG
notes: Immobilised on a CM5 chip by amine coupling; also called EVN/ART; EVN/ARTN
B4: recombinant human GDNF (ligand, UniProt P39905 78-211, looked up)
chain: SPDKQMAVLPRRERNRQAAAANPENSRGKGRRGQRGKNRGCVLTAIHLNVTDLGLGYETKEELIFRYCSGSCDAAETTYDKILKNLSRNRRLVSDKVGQACCRPIAFDDDLSFLDDNLVYHILRKHSAKRCGCI
notes: Immobilised on a CM5 chip by amine coupling; also called glial cell-line derived neurotrophic factor
B5: NH2-terminally 6His-tagged recombinant human neurturin (ligand)
chain: HHHHHHARLGARPCGLRELEVRVSELGLGYASDETVLFRYCAGACEAAARVYDLGLRRLRQRRRLRRERVRAQPCCRPTAYEDEVSFLDAHSRYHTVHELSARECACV
notes: Immobilised on a CM5 chip by amine coupling; also called NTN

In assay [1] the target is B2. Kind of assay: SPR (BIACORE 3000), persephin immobilised. How it is done:
Bound protein was eluted with 0.1 M Na-citrate, pH 3.0 and collected into 1 M Tris buffer, pH 8.4 (dilution ratio 1:6). Protein concentration was estimated by absorbance at 280 nm using an extinction coefficient of 1.5. Surface plasmon resonance (SPR) U.S. Ser. No. 10/019,337, filed Dec. 19, 2001 experiments were performed at 25° C. using a BIACORE 3000 instrument (Biacore AB, Uppsala, Sweden). Sensor chip CM5, the amine coupling kit and buffers used were also obtained from Biacore AB. Recombinant PSP, NTN, EVN/ART and GDNF were used as immobilised ligands. Recombinant human GDNF was obtained from R&D Systems Europe Ltd. (Abingdon, UK). NH2-terminally 6His-tagged (SEQ ID NO: 48) recombinant human NTN, rat PSP and human EVN/ART were produced in *E. coli* as described previously (Creedon et al., 1997). […] The association of the GFRα receptors to the immobilised ligands was monitored for 3 min and the dissociation for 1 min, followed by regeneration with 10 mM glycine buffer. […] Data were analyzed using a global analysis with the BIACORE evaluation software (version 3.0.1). Global analysis calculates the association rate (k_a) and dissociation rate (k_d) simultaneously and the apparent equilibrium dissociation constant (K_D) is then calculated as k_d/k_a. […] Specific binding to PSP could be detected with both rat and chicken GFRα-4-IgGFc fusion proteins.
For orientation: SPR reads the build-up and loss of mass on a sensor chip optically.

The target in assay [2] is B1. Nature of the assay: SPR (BIACORE 3000), persephin immobilised, GFRα-4-IgGFc in solution, 1:1 Langmuir global fit, n=3. How it is done: (§1) Bound protein was eluted with 0.1 M Na-citrate, pH 3.0 and collected into 1 M Tris buffer, pH 8.4 (dilution ratio 1:6). Protein concentration was estimated by absorbance at 280 nm using an extinction coefficient of 1.5. Surface plasmon resonance (SPR) U.S. Ser. No. 10/019,337, filed Dec. 19, 2001 experiments were performed at 25° C. using a BIACORE 3000 instrument (Biacore AB, Uppsala, Sweden). Sensor chip CM5, the amine coupling kit and buffers used were also obtained from Biacore AB. Recombinant PSP, NTN, EVN/ART and GDNF were used as immobilised ligands. Recombinant human GDNF was obtained from R&D Systems Europe Ltd. (Abingdon, UK). NH2-terminally 6His-tagged (SEQ ID NO: 48) recombinant human NTN, rat PSP and human EVN/ART were produced in *E. coli* as described previously (Creedon et al., 1997). The carboxylated matrix of a CM5 sensor chip was first activated with a 1:1 mixture of 400 mM N-ethyl-N'-(3-dimethylaminopropyl)-carbodiimide and 100 mM N-hydroxy-succinimide for 10 min. Recombinant neurotrophic factors were applied onto the activated surface in 10 mM sodium acetate buffer, pH 4.5 at a flow rate of 5 μl/min. Unreacted carboxyl groups were blocked with 1 M ethanolamine-HCl. For binding experiments, soluble GFRα-IgGFc fusion proteins were superfused using the kinject program at 30 μl/min. Concentrations of GFRα-IgGFc used in kinetic experiments were between 1 and 100 nM in Hepes buffered saline (150 mM NaCl, 3.5 mM EDTA sodium salt, 0.005% polysorbate 20, 10 mM Hepes, pH 7.4). The association of the GFRα receptors to the immobilised ligands was monitored for 3 min and the dissociation for 1 min, followed by regeneration with 10 mM glycine buffer. Dissociation was initiated by superfusion with Hepes buffered saline. To improve the quality of sensor data, double referencing was used (Myszka, 1999). Data were analyzed using a global analysis with the BIACORE evaluation software (version 3.0.1). Global analysis calculates the association rate (k_a) and dissociation rate (k_d) simultaneously and the apparent equilibrium dissociation constant (K_D) is then calculated as k_d/k_a. A simple 1:1 Langmuir model was used to fit the data. Specific binding to PSP could be detected with both rat and chicken GFRα-4-IgGFc fusion proteins.

Assay [3] addresses T2, chicken GFRα-4-IgGFc fusion protein (chicken; human, UniProt P01857-1 99-330 = IgG part, limits assumed).
T2 construct: domain: human IgG1-Fc fusion domain; also called chicken GFR-4-IgGFc
Described as above. How it is done:
as §1

For assay [4], the target named is B1. Nature of the assay: SPR (BIACORE 3000), ligand immobilised, GFRα-IgGFc in solution. How it is done: as §1
Assay [5] addresses T2, chicken GFRα-4-IgGFc fusion protein. The description is as above. How it is done: as §1
Assay [6] deals with T1, human GFRα-2-IgGFc fusion protein. Kind of assay: SPR (BIACORE 3000), NTN immobilised. How it is done:
GFRα-IgGFc fusion proteins were purified from the medium of permanently or transiently transfected CHO cells by protein A chromatography. Bound protein was eluted with 0.1 M Na-citrate, pH 3.0 and collected into 1 M Tris buffer, pH 8.4 (dilution ratio 1:6). Protein concentration was estimated by absorbance at 280 nm using an extinction coefficient of 1.5. Surface plasmon resonance (SPR) U.S. Ser. No. 10/019,337, filed Dec. 19, 2001 experiments were performed at 25° C. using a BIACORE 3000 instrument (Biacore AB, Uppsala, Sweden). Sensor chip CM5, the amine coupling kit and buffers used were also obtained from Biacore AB. Recombinant PSP, NTN, EVN/ART and GDNF were used as immobilised ligands. Recombinant human GDNF was obtained from R&D Systems Europe Ltd. (Abingdon, UK). NH2-terminally 6His-tagged (SEQ ID NO: 48) recombinant human NTN, rat PSP and human EVN/ART were produced in *E. coli* as described previously (Creedon et al., 1997). […] The association of the GFRα receptors to the immobilised ligands was monitored for 3 min and the dissociation for 1 min, followed by regeneration with 10 mM glycine buffer. […] Data were analyzed using a global analysis with the BIACORE evaluation software (version 3.0.1). Global analysis calculates the association rate (k_a) and dissociation rate (k_d) simultaneously and the apparent equilibrium dissociation constant (K_D) is then calculated as k_d/k_a. […]

T2 sequence (P01857 other isoform, or with tags, fused parts or gaps limits assumed): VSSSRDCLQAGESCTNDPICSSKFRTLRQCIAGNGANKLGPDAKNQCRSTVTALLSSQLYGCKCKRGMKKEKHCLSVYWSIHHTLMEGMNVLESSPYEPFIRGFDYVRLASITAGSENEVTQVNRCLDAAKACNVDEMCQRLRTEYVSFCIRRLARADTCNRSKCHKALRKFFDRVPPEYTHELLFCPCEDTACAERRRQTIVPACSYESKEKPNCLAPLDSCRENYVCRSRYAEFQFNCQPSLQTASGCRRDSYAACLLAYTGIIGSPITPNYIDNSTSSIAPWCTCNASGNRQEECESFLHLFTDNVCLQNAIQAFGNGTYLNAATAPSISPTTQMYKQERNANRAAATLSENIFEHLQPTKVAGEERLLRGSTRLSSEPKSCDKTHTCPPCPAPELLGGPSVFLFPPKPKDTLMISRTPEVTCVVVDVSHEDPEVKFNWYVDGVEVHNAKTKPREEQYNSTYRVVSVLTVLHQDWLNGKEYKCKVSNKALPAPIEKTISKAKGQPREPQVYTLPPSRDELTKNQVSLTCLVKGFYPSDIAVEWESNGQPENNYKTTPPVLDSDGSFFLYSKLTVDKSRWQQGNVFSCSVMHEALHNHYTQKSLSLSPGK

As for B1, in assay [1], the “fold lower binding level than chicken GFRα-4-IgGFc” value is around 20 fold.
As to B2, in assay [2], binding was put at a Kd of 5.9 nM, the koff came to 0.0012 s⁻¹ and the kon was around 270000 M⁻¹ s⁻¹. In assay [3], the Kd was determined as 5.4 nM, the koff came out at 0.00088 s⁻¹ and the kon was around 230000 M⁻¹ s⁻¹.
As for B3, the binding result in assay [4] and in assay [5] was “no binding” each time.
In the case of B4, the binding result in assay [4] and in assay [5] was “no binding” throughout.
Regarding B5, the binding result is on record as “binds” in assay [6], “no binding” in assay [4] and “no binding” in assay [5].

In general, Kd refers to the concentration at which binding is half-saturated. A high value points to weaker binding. Broadly, the koff is the first-order rate constant of dissociation. Usually kon stands for a measure of how fast the partners come together.
